Source: patent US12545899B2, “Luciferase enzymes for use with thermostable luciferins in bioluminescent assays” (Promega Corporation, priority 2018, dated 2026)
Where a chain is given by its changes, count along the chain named. Names and notes keep the numbering of the source.

B1: C2242E1: SEQ ID NO: 42; H244W+T344A+I396K+S193A+N228D+L305F+S306P+I109V+C38R+F55I+V262A+I422V (protein)
chain: MADKNILYGPEPFYPLEDGTAGEQMFDALSRYAAIPGRIALTNAHTKENVLYEEILKLSCRLAESFKKYGLKQNDTIAVCSENSLQFFLPVIASLYLGIIVAPVNDKYVERELIHSLGIVKPRIVFCSKNTFQKVLNVKSKLKSIETIIILDLNEDLGGYQCLNNFISQNSDSNLDVKKFKPYSFNRDDQVAAIMFSSGTTGLPKGVMLTHKNIVARFSIAKDPTFGDAINPTSAILTVIPFHWGFGMMTTLGYFTCGFRVALMHTFEEKLFLQSLQDYKVESTLLVPTLMAFLAKSALVEKYDFPHLKEIASGGAPLSKEIGEMVKKRFKLNFVRQGYGLTEATSAVLITPKGDAKPGSTGKIVPLHAVKVVDPTTGKILGPNEPGELYFKGPMKMKGYYNNEEATKAIIDNDGWLRSGDVAYYDNDGHFYIVDRLKSLIKYKGYQVAPAEIEGILLQHPYIVDAGVTGIPDEAAGELPAAGVVVQTGKYLNEQIVQDYVASQVSTAKWLRGGVKFLDEIPKGSTGKIDRKVLRQMLEKHTNGHHHHHHHH
B2: C2260B6: SEQ ID NO: 43; H244W+T344A+I396K+S193A+N228D+L305F+S306P+I109V+Y108F+V261A+N427D+F431V (protein)
chain: B1 chain with R38C, I55F, Y108F, V261A, A262V, V422I, N427D, F431V
B3: C2157D2: SEQ ID NO: 74; H244W+T344A+I396K+S193A+N228D+L305F+S306P+I109V+K107N+T289S (protein)
chain: MADKNILYGPEPFYPLEDGTAGEQMFDALSRYAAIPGCIALTNAHTKENVLYEEFLKLSCRLAESFKKYGLKQNDTIAVCSENSLQFFLPVIASLYLGIIVAPVNDKYIERELIHSLGIVKPRIVFCSKNTFQKVLNVKSKLKSIETIIILDLNEDLGGYQCLNNFISQNSDSNLDVKKFKPYSFNRDDQVASIMFSSGTTGLPKGVMLTHKNIVARFSIAKDPTFGNAINPTSAILTVIPFHHGFGMMTTLGYFTCGFRVVLMHTFEEKLFLQSLQDYKVESTLLVPTLMAFLAKSALVEKYDLSHLKEIASGGAPLSKEIGEMVKKRFKLNFVRQGYGLTETTSAVLITPKGDAKPGSTGKIVPLHAVKVVDPTTGKILGPNEPGELYFKGPMKMKGYYNNEEATKAIIDNDGWLRSGDIAYYDNDGHFYIVDRLKSLIKYKGYQVAPAEIEGILLQHPYIVDAGVTGIPDEAAGELPAAGVVVQTGKYLNEQIVQDYVASQVSTAKWLRGGVKFLDEIPKGSTGKIDRKVLRQMLEKHTNGHHHHHHHH
B4: C9679H10: SEQ ID NO: 99; H244W+T344A+I396K+S193A+N228D+L305F+S306P+I109V+A316W+T344I (protein)
chain: B1 chain with A262V, A316W, T342S, V348I, V422I
B5: C9671D10: SEQ ID NO: 100; H244W+T344A+I396K+S193A+N228D+L305F+S306P+I109V+C38R+F55I+Y108F+A316W+Y339M+T344I (protein)
chain: B1 chain with A262V, A316W, T342S, V348I, V422I
B6: C8523E12: SEQ ID NO: 94; H244W+T344A+I396K+S193A+N228D+L305F+S306P+I109V+C38R+F55I+A316W+T342S+V348I (protein)
chain: B1 chain with R38C, I55F, K121Q, V261A, A262V, V287I, V422I
B7: C9715F9: SEQ ID NO: 95; H244W+T344A+1396K+S193A+N228D+L305F+S306P+I109V+C38R+A316W+T342S+V348I+K205N (protein)
chain: B1 chain with I55F, A262V, A316W, T342S, V348I, V422I
B8: C9673G4: SEQ ID NO: 96; H244W+T344A+I396K+S193A+N228D+L305F+S306P+I109V+C38R+F55I+A316W+T342S+V348I+I396I (protein)
chain: B1 chain with A262V, A316W, T342S, A344T, V348I, K396I, V422I

How the values were obtained:
[1] = Brightness of additional luciferase enzyme variants with CS0333; format: biochemical; conditions: for Fold-improvement over ATG3707, CS0333 BG / Fold-improvement over ATG3707, CS0333 DR: Table 7A; for Fold-improvement over ATG3707, CS0333 BG / Fold-improvement over ATG3707, CS0333 DR / luminescence CS0333 BG / luminescence CS0333 DR: 1 mM CS0333; for Fold-improvement over ATG3707, CS0333 BG / luminescence CS0333 BG / Fold improvement over ATG3707, CS0333 BG: Bright-Glo buffer; for Fold-improvement over ATG3707, CS0333 DR / luminescence CS0333 DR / Fold improvement over ATG3707, CS0333 DR: Detection Reagent buffer; for luminescence CS0333 BG / luminescence CS0333 DR / Fold improvement over ATG3707, CS0333 BG / Fold improvement over ATG3707, CS0333 DR: Table 7B
Procedure: (§1) Additional luciferase enzyme variants were generated and evaluated for their stability and activity. To evaluate the additional luciferase enzyme variants, 0.005 mg/ml luciferase enzyme variant was mixed with 1 mM ATP+1 mM substrate in either Bright-Glo™ (BG) or Detection Reagent (DR) buffers. […] (Table 7A is colored according to their relative luminescence values within each column across a red to green color spectrum with the lowest values colored red and the highest values colored green.)

[2] = Kinetic analysis of ATG-3707 variants with CS0333; format: biochemical
Procedure: Additionally, Table 5 (below) includes kinetic analysis of the ATG-3707 variants identified above. Reagent compositions included CS0333 serially diluted 10-fold from 1 mM to 10 fM in reaction buffer with 2 mM ATP. […] Reactions were incubated at 25° C. for 3 min, and luminescence was read and then normalized to ATG-3707 activity tested in parallel. […] Since C2157D2 was selected for improved brightness in CellTiterGlo® buffer over ATG-3707, it still had beneficial properties.

[3] = Brightness of additional luciferase enzyme variants with CS0280; format: biochemical; conditions: for Fold-improvement over ATG3707, CS0280 BG / Fold-improvement over ATG3707, CS0280 DR: Table 7A; for Fold-improvement over ATG3707, CS0280 BG / Fold-improvement over ATG3707, CS0280 DR / luminescence CS0280 BG / luminescence CS0280 DR: 1 mM CS0280; for Fold-improvement over ATG3707, CS0280 BG / luminescence CS0280 BG / Fold improvement over ATG3707, CS0280 BG: Bright-Glo buffer; for Fold-improvement over ATG3707, CS0280 DR / luminescence CS0280 DR / Fold improvement over ATG3707, CS0280 DR: Detection Reagent buffer; for luminescence CS0280 BG / luminescence CS0280 DR / Fold improvement over ATG3707, CS0280 BG / Fold improvement over ATG3707, CS0280 DR: Table 7B
Procedure: as §1

[4] = Luminescence of ATG-3707 variants (second round epPCR) with CS0333; format: biochemical; conditions: for Luminescence (RLU) BrightGlo / Normalized Luminescence BrightGlo: BrightGlo buffer; for Luminescence (RLU) BrightGlo / Luminescence (RLU) CellTiterGlo / Luminescence (RLU) Detection Reagent: 25° C., 3 min; for Normalized Luminescence BrightGlo / Normalized Luminescence CellTiterGlo / Normalized Luminescence Detection Reagent: normalized to ATG-3707; for Luminescence (RLU) CellTiterGlo / Normalized Luminescence CellTiterGlo: CellTiterGlo buffer; for Luminescence (RLU) Detection Reagent / Normalized Luminescence Detection Reagent: Detection Reagent buffer
Procedure: Reagent compositions included CS0333 diluted from 20 mM to 2 mM in reaction buffer with 2 mM ATP. […] Reactions were incubated at 25° C. for 3 min, and luminescence was read and then normalized to ATG-3707 activity tested in parallel.

[5] = Differential scanning fluorimetry (DSF) analysis; format: physicochemical; design: key to DSF Tm: melting temperature in °C (heated 30-95 °C at 1 °C/min); conditions: for DSF Tm: Table 7A; for DSF Tm (° C.): Table 7B
Procedure: (§2) To conduct the experiment, Sypro Orange (5000×) was diluted in water to 3× and combined with enzymes stored in 50 mM HEPES pH 7.5, 100 mM NaCl, 2 mM EDTA to a final concentration of 5×. Fluorescence was read at 60 second intervals as the reactions were heated at 1° C. per minute from 30-95° C. The change in fluorescence at each minute was calculated and plotted for each temperature in the range.
as §2, with “The luciferase enzyme variants generated were also evaluated using DSF analysis as shown in the representative results provided in Tables 7A and 7B above. To” for “To”, “the experiments,” for “the experiment,”, “in 20” for “in 50”, “7.5, 200” for “7.5, 100”, “NaCl, 1” for “NaCl, 2”

| Molecule | Fold-improvement over ATG3707, CS0333 BG [1] | Fold-improvement over ATG3707, CS0333 DR [1] | Km ([2]; BrightGlo) | Vmax (RLU) ([2]; BrightGlo) | Km ([2]; Detection Reagent) | Vmax (RLU) ([2]; Detection Reagent) | Fold-improvement over ATG3707, CS0280 BG [3] | Fold-improvement over ATG3707, CS0280 DR [3] | DSF Tm [5] | luminescence CS0333 BG [1] | luminescence CS0333 DR [1] | Fold improvement over ATG3707, CS0333 BG [1] | Fold improvement over ATG3707, CS0333 DR [1] | luminescence CS0280 BG [3] | luminescence CS0280 DR [3] | Fold improvement over ATG3707, CS0280 BG [3] | Fold improvement over ATG3707, CS0280 DR [3] | DSF Tm (° C.) [5] | other results |
| --- | --- | --- | --- | --- | --- | --- | --- | --- | --- | --- | --- | --- | --- | --- | --- | --- | --- | --- | --- |
| B1 | 1.75 | 1.63 | 5.81 µM | 7,021,077 RLU | 109 µM | 5,366,355 RLU | 1.25 | 1.56 | 54 |  |  |  |  |  |  |  |  |  | Luminescence (RLU) BrightGlo [4]: 5643850 RLU; Normalized Luminescence BrightGlo [4]: 1.45; Luminescence (RLU) CellTiterGlo [4]: 708509 RLU; Normalized Luminescence CellTiterGlo [4]: 1.10; Luminescence (RLU) Detection Reagent [4]: 6604720 RLU; Normalized Luminescence Detection Reagent [4]: 1.28 |
| B2 | 0.70 | 1.00 | 4.06 µM | 4,439,047 RLU | 68.2 µM | 4,995,834 RLU | 0.82 | 0.97 | 55 |  |  |  |  |  |  |  |  |  | Luminescence (RLU) BrightGlo [4]: 2896240 RLU; Normalized Luminescence BrightGlo [4]: 0.74; Luminescence (RLU) CellTiterGlo [4]: 921045 RLU; Normalized Luminescence CellTiterGlo [4]: 1.43; Luminescence (RLU) Detection Reagent [4]: 6230440 RLU; Normalized Luminescence Detection Reagent [4]: 1.21 |
| B3 | 1.16 | 1.52 | 6.31 µM | 3,053,170 RLU | 97.1 µM | 3,677,773 RLU | 2.36 | 3.08 | 63 |  |  |  |  |  |  |  |  |  |  |
| B4 |  |  |  |  |  |  |  |  |  | 12,508,600 | 11,647,400 | 2.35 | 2.73 | 7,349,470 | 984,923 | 9.26 | 33.69 | 65 °C |  |
| B5 |  |  |  |  |  |  |  |  |  | 8,464,030 | 7,772,660 | 1.59 | 1.82 | 11,877,500 | 1,439,510 | 14.97 | 49.24 | 65 °C |  |
| B6 |  |  |  |  |  |  |  |  |  | 20,331,700 | 15,418,100 | 3.82 | 3.62 | 1,996,020 | 213,031 | 2.52 | 7.29 | 67 °C |  |
| B7 |  |  |  |  |  |  |  |  |  | 18,891,000 | 14,484,700 | 3.55 | 3.40 | 2,040,340 | 245,081 | 2.57 | 8.38 | 68 °C |  |
| B8 |  |  |  |  |  |  |  |  |  | 18,508,700 | 12,268,900 | 3.48 | 2.88 | 1,298,420 | 104,671 | 1.64 | 3.58 | 71 °C |  |
